This data set can be described thus: soluble on expression in E. coli; label from the status in PepcDB or PDB records.
“MGNMFGSSLASLFFLWATIQQIFPNHLKIAIKEFFLSTIQQISFAKRFSDKFINFFSPYVQINFSEYEDYRVNHAFDPIETYLGAKATDKAKHLRASQVRESKGLVLKRDETKVRDEYEGIRVWWEMETDSAGYKTLKLTFHRRSRDIVTNSYIKYVVEEGKSIDAKNKKMKLFTNNPSSHWGSSKTSFWRYIDFEHPATFETLAMDPKKKEQILNDLAAFNNGKDYYKKIGKAWKRGYLLYGPPGTGKSTMIAAMANLLNYSIYDLELTAIQNNSELRKILTATSNKSIIVIEDIDCSLDLTGKRKKKESNLMIWRKDGDQDNEENKSFVTLSGLLNFIDGIWSACGQERIIVFTTNHLAKLDPALIRRGRMDMHIELSYCTFEAFKTLAKNYLDLDSHPLFSKIESLMKETNIAPADVAENLMKKNRETDADGSLNDLIESLERKKKVQIAQVDEHKEYSNKIVEAFRKLF”: the “soluble on expression in E. coli” value is given as “soluble”.
The entry for “MPFPVTTQGSQQTQPPQKHYGITSPISLAAPKETDCLLTQKLVETLKPFGVFEEEEELQRRILILGKLNNLVKEWIREISESKNLPQSVIENVGGKIFTFGSYRLGVHTKGADIDALCVAPRHVDRSDFFTSFYDKLKLQEEVKDLRAVEEAFVPVIKLCFDGIEIDILFARLALQTIPEDLDLRDDSLLKNLDIRCIRSLNGCRVTDEILHLVPNIDNFRLTLRAIKLWAKRHNIYSNILGFLGGVSWAMLVARTCQLYPNAIASTLVHKFFLVFSKWEWPNPVLLKQPEECNLNLPVWDPRVNPSDRYHLMPIITPAYPQQNSTYNVSVSTRMVMVEEFKQGLAITDEILLSKAEWSKLFEAPNFFQKYKHYIVLLASAPTEKQRLEWVGLVESKIRILVGSLEKNEFITLAHVNPQSFPAPKENPDKEEFRTMWVIGLVFKKTENSENLSVDLTYDIQSFTDTVYRQAINSKMFEVDMKIAAMHVKRKQLHQLLPSHVLQKKKKHSTEGV” is “soluble”; for “MMNALELQALRRIFDMTIEECTIYITQDNNSATWQRWEAGDIPISPEIIARLKEMKARRQRRINAIVDKINNRIGNNTMRYFPDLSSFQSIYTEGDFIEWKIYQSVAAELFAHDLERLC” it is “soluble”; for “MGSDKIHHHHHHMNKTVDMTVNTIYLVGGGKGGVGKSVVALALVDHLQRRGVNTVLVENDTSNPDVMRAVHEEIACASFDLDTAGGWIDMVNYCDGHRDAVVVVSTAARNQDGVTRYGATLGSTLDELGRRLVVFWVINRQRDSLELLRQFSETFPDATVHVVRNGYYGAPERFVLYQDSKLRKSIEAKGRSLDFPELADRVADDLRSHRLSVRKAVETLPIGQRAELLRWRACYDAMFSQVTDDA” it is “not soluble”.
The entry for “MKANRVNIKQAITEGETSLGIEFGSTRIKAVLIDSSFETIASGSYEWENLLEDGFWTYNLVDIITGLRTAYSEMKNEVERNYGITIRKIGSIGISAMMHGYMAFDKTGELLVPFRTWRNSTTGAAAKELTDQFQFNIPERWSIAHLYQAILNEEKHLPRIDYITTLAGYIHWLLTGNKAIGIGDASGMFPIDESTQNYNESMVKQFDELISNKGYPWKLKDILPKVYISGEQAGELTEIGAKILDQSKNLQPGIPICPPEGDAGTGMVATNSVRKRTGNISVGTSVFAMIVLEKELSKVYPEIDLVTTPNGSPVGMVHANNCSSDINAWLGLFREFFEAMGQKIETNKLFEVMLNKALEADSDGGGLLSYGYFSGENITGLEKGRPLFVRSPESRFNLANFMRTHLFTAFAALKIGMDILTKEEKIEIDSILAHGGLFKTPLVGQKIVAAAMNTPVSVMETAGEGGAWGMAILASYMMNKGQEESLEDFLDKKVFEEDAGQEIYPDQLDVEGFEAFIERYKKGLMIEQAAVDHLILEHHHHHH” is “soluble”; for “PGSEFELGNKGNNILNSNESRLNVNENNILREKFENYARIVFQFNNSRQANGNFDIANEFISILSSANGTRNAQLLESWKILESMKSKDINIVEVGKQYLEQQFLQYTDNLYKKNMNEGLATNVNKIKSFIDTKLKKADKSWKISNLTVINGVPIWALIFYLLRAGLIKEALQVLVENKANIKKVEQSFLTYFKAYASSKDHGLPVEYSTKLHTEYNQHIKSSLDGDPYRLAVYKLIGRCDLSRKNIPAVTLSIEDWLWMHLMLIKEKDAENDPVYERYSLEDFQNIIISYGPSRFSNYYLQTLLLSGLYGLAIDYTYTFSEMDAVHLAIGLASLKLFKIDSSTRLTKKPKRDIRFANILANYTKSFRYSDPRVAVEYLVLITLNEGPTDVELCHEALRELVLETKEFTVLLGKIGRDGARIPGVIEERQPLLHVRDEKEFLHTITEQAARRADEDGRIYDSILLYQLAEEYDIVITLVNSLLSDTLSASDLDQPLVGPDDNSETNPVLLARRMASIYFDNAGISRQIHVKNKEICMLLLNISSIRELYFNKQWQETLSQMELLDLLPFSDELSARKKAQDFSNLDDNIVKNIPNLLIITLSCISNMIHILNESKYQSSTKGQQIDSLKNVARQCMIYAGMIQYRMPRETYSTLINIDVSL” it is “soluble”; for “MGSDKIHHHHHHMDKAGKETPFWVQKTLAQLNAHEWEALCDRCGLCCLVKAEDEEAGDIYLTSLICPFFDLKTKVCSCYSQRKQQNPDCSTLTPMTVQTYDWLPDHCAYRLVAAGKPLPTWHPLISGRHDTVVNVMNYFKGVKIRHLQPHSDLEDYLILDPPEG” it is “not soluble”.
As for “MAHHHHHHMESNNHTTDLPSHAPGVEAAPIAAATPPLTGLAEGAVVTEGASHPKMAAAEPSEATATESPPSPHSTGEAKTQNALAALMSVLDNDEAARRGGTSLRSLQKMCMRVPQLSTELTRPQRFQLYCLLLLEDGDDPAVPGGAAGQEDWTTYTKQALETHVHMAKQAAALFPPPSTSPPTNSPASSTAWAPMRPFTSIRQ”, the “soluble on expression in E. coli” value is recorded as “soluble”.
The entry for “MKQSTIALALLPLLFTPVTKADIELTQSPSSLAVSAGEKVTMSCKSSQSLLNSGNQKNYLAWYQQKPGLPPKLLIYGASTRESGVPDRFTGSGSGTDFTLTISSVQAEDLAVYYCQNDHSYPLTFGAGTKLEIKRTVAAPSVFIFPPSDEQLKSGTASVVCLLNNFYPREAKVQWKVDNALQSGNSQESVTEQDSKDSTYSLSSTLTLSKADYEKHKVYACEVTHQGLSSPVTKSFNRGEC” is “soluble”; for “GQRELTLFVHGFNSTQTETAYRAAQLAHDIEMPGSLMVYSWPSKGHALGYAYDADSTVFARDGLETVLRRLGEQRIDRLAVVAHSMGSFLLMEALRQIEIATPGWSARHLDGVILISPDLDLDVFRSQMRRIKTVPQPFVVMASEKDNVLNLSRHLRGKQSSERLGQIGSAALITDLPVAVIDTSQFSDEAESGHFIAATSPTLLAMIAEARNMTDLFEAGNVPL” it is “not soluble”.
The entry for “SNAMSSEELEQVWSNIKSEARALAECEPMLASFFHATLLKHENLGSALSYILANKLANPIMPAIAIREVVEEAYRSDAHMIVSAARDILAVRLRDPAVDKYSTPLLYLKGFHALQAYRIGHWLWAQDRKALAIYLQNQVSVAFGVDIHPAATIGCGIMLDHATGIVIGETAVVENDVSILQSVTLGGTGKTSGDRHPKIREGVMIGAGAKILGNIEVGRGAKIGAGSVVLQSVPAHTTAAGVPARIVGKPESDKPSLDMDQHFNGSIQGFEYGDGI” is “soluble”; for “MFGNLQGKFIIATPEMDDEYFDRTVIYICEHNDNGTIGVIINTPTDLSVLELLTRMDFQMAKPRIYTQDQMVLNGGPVNQDRGFIVHSKTDHEFTHSYKVTDDITLTTSGDVLDSFGTQTAPEKFIVCLGCSTWKPHQLEQEIAQNYWLLSEANNQTLFETSYLDRWVEANEMLGISGILAPAGRALEHHHHHH” it is “soluble”.
The entry for “MGSDKIHHHHHHANSTNTIVSTSNMASTAYTRKSATGWTYNLGGTATNMTFGKKTHYLKNYPNTTWHATKKRYIIKKNGVKYLYYYVTNGRKTAAGWIWHGYLQKKSYAHTATTTSSTGTGTYDSILKAAKTQLGKPYAYGGNGPSAFDCSGFTKYVFNQAIGQTLPRTAQAQYDSYTHVSAANAKAGDLIFFGTSASNITHCGIYLGNHKMIDAQLNGVITEATNVSWWHTVGYSRPATLS” is “not soluble”.
In the case of “MSLMGYKNNRVGYQKELLTSRAVIKKDNYAIIPHDGLVQNAVPGFENVDISILGSPKLGATFVDYIATFHKNGQQTTGFGGDGIQTLVYVIDGRLRVSDGQETHELEAGGYAYFTPEMKMYLANAQEADTEVFLYKKRYQPLAGHQPYKVVGSIHDQQPEEYEGMTDVLLWSLLPKEFDFDMNMHILSFEPGASHAYIETHVQEHGAYLISGQGMYNLDNEWYPVEKGDYIFMSAYVPQAAYAVGREEPLMYVYSKDANREPELEGGSHHHHHH”, the “soluble on expression in E. coli” value is reported as “soluble”.
The entry for “MAHHHHHHMMSMRPTTGMAPPPTGMAFSATGSSHTGPMRPTTTMGGGTTLGRIQAQVQEGTFTSTVYGYIRDHQYEEAVELLATQLEEFPRSRAAASLMAYCYYMMGDYGEAASLYEQLTKICPNIEEYRVYYAQSLYKAGAYAESNRLCTLITSPQNQTTLNKLQAAIAYEQEDIPQTKSFLDQAPETDTDMLVLRACVLSKEGSYEEALEKFKEAQNAVGFSAALTYNMALMYYKMEQYGPALRHLAEIIDRGVEEHPELNIGTNTEGGEARSVGNTQLLRETALIEAFNLKAAIEYASKNMQAAKEALTDMPPRTDAELDPVTLHNTALINMDENPTNAFKKFNFLLQNPPFPPETFQNLLLFYCKYQYYDLAADVLAENPHLAWQYLSQNNQSLYDFLDGLITAQTSPAEAYRKFDILAQKMVQQLRNMTRRIQEADQSQDAAVAKTAVRTYDVTLEEYIPVLMAQANIYWEMENYPMVEQLFRQSADFCSENDVWKQNVAHVFFMQETKFKEAIRYYSPVVEANRENILNCSAIVLANLCVSYIMTAQNEQAEEIMRRIERAEERLTYEDSSKQPLHLCIVNLVIGTLYCSKGNFEFGISRIIKSLEPYDRKIMTDTWFYAKRCFLALAMNLAKHMVSLKDSSFEEILFFFDQADLHGEKIFAFIHPDPSKQDTSPRNTARWEARQLKKLYLTLKE” is “not soluble”.
The entry for “MGSDKIHHHHHHMTKEQSYPPTCIDCGTQNCKFKERTYPEFCLTTHLEQEDLEWALKQYNDNNKIMAASAEVEYEGYCRLTRVEEIMTFARKMGYKKLGIAYCIGLVNEARIFARILRANGFEVYSVICKVAGIAKSSIGIPKECEKIGAAMCNPILQARLLNQAYTELNVVIGLCVGHDSLFYKYSNAYTTTLVTKDRVTGHNPAAALYTANSYYRKKLMPEGEQSK” is “not soluble”; for “MGSDKIHHHHHHMHLLFVTSIVPDGALASGYEIANAAIIAALRRAGARVTVIGFTWPGKVTADPENTVVLGEIDVRTESASALRKLAWVRKAMLSGLTFASVKLRAVSEHEVEAALEQAGPFDGYVLNSVQFAGAFEKLFEDKPSIFVAHNVEHLSARENEAAAGGVFQRLLFRREARLLKVVEERLCRRARFVFTLAEEDRAALGVASNDRSAVLPLVTGARAPVRNGPRRIDCDAALIGTWTWQPNRIGLDWFLGKVVPHLRPGFRIRIAGHMPSGVTSAHPGVEFVGRVADARAFVCGAAVIPLISTAGSGVQLKTIETFELGLPSVATSRSLRGIGHRPDNCVVTDDPAGFARALEAAAADIRDVDGGAFYRQQVKALDAAIRYGLSKLGAVRQEVLA” it is “not soluble”; for “MTEETKPIKIAVIRCDIVSEACPGVGCFKAFNERKSYFKEYDEKAQMIAFFTCGGCSGRRVYRLLKALKKHNPDVVHLSSCMLMEDSYPRCPNIDTIRKTIQDAGIKVVEGTHH” it is “not soluble”.
